Results published in patent publication US20250262210A1 (TRUSTEES OF COLUMBIA UNIVERSITY IN THE CITY OF NEW YORK, published 2025).

What was measured:
Assay in all cases: IP/MS, LZTR1 wild type-FLAG, U87
[1] = molecular target: T1, SLC4A2 (human, UniProt P04920 1-1241, limits assumed)
T1 sequence (looked up): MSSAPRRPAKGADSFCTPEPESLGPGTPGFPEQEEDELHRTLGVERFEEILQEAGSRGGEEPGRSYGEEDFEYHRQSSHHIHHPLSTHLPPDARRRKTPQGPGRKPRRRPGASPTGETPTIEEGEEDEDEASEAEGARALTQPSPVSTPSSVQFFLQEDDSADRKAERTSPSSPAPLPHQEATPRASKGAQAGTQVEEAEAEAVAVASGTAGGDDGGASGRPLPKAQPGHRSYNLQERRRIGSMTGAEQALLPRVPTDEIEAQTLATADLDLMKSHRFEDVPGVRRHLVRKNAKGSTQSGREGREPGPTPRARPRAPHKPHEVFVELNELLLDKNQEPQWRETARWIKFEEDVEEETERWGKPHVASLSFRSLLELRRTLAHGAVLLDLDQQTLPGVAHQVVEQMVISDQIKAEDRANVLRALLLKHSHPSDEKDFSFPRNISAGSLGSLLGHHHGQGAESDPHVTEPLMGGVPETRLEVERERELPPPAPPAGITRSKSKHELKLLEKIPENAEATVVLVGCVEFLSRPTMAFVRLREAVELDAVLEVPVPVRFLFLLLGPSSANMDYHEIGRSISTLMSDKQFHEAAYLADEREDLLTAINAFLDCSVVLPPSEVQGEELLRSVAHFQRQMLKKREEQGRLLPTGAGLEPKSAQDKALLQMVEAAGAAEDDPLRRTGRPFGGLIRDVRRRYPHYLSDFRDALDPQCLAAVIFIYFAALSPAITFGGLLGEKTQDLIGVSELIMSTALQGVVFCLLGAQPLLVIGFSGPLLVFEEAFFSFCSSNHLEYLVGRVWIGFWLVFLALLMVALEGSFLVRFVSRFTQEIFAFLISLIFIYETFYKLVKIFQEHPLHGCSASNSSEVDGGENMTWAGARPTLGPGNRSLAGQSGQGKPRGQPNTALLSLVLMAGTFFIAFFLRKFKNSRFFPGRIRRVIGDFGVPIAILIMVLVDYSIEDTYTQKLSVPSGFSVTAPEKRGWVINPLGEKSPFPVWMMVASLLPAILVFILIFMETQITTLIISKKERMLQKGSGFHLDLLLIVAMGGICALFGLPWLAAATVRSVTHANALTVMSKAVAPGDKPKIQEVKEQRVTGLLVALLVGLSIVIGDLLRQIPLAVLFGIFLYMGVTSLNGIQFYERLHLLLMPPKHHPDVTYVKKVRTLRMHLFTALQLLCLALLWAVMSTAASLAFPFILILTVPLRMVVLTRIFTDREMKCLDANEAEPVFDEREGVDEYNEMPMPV
Outline: (§1)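 Read-out: spectral counts from LC-MS/MS (Orbitrap Fusion) after MaxQuant identification. Variable modifications were Met oxidation, protein N-terminal acetylation and N/Q deamidation.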

[2] = molecular target: MAP4K4 (human, UniProt O95819 2-1239, limits assumed)
Outline: as §1

[3] = molecular target: CDC42BPB (human, UniProt Q9Y5S2 1-1711)
Outline: as §1

Measured: binding result

Sequence of MAP4K4 (O95819 2-1239 limits assumed): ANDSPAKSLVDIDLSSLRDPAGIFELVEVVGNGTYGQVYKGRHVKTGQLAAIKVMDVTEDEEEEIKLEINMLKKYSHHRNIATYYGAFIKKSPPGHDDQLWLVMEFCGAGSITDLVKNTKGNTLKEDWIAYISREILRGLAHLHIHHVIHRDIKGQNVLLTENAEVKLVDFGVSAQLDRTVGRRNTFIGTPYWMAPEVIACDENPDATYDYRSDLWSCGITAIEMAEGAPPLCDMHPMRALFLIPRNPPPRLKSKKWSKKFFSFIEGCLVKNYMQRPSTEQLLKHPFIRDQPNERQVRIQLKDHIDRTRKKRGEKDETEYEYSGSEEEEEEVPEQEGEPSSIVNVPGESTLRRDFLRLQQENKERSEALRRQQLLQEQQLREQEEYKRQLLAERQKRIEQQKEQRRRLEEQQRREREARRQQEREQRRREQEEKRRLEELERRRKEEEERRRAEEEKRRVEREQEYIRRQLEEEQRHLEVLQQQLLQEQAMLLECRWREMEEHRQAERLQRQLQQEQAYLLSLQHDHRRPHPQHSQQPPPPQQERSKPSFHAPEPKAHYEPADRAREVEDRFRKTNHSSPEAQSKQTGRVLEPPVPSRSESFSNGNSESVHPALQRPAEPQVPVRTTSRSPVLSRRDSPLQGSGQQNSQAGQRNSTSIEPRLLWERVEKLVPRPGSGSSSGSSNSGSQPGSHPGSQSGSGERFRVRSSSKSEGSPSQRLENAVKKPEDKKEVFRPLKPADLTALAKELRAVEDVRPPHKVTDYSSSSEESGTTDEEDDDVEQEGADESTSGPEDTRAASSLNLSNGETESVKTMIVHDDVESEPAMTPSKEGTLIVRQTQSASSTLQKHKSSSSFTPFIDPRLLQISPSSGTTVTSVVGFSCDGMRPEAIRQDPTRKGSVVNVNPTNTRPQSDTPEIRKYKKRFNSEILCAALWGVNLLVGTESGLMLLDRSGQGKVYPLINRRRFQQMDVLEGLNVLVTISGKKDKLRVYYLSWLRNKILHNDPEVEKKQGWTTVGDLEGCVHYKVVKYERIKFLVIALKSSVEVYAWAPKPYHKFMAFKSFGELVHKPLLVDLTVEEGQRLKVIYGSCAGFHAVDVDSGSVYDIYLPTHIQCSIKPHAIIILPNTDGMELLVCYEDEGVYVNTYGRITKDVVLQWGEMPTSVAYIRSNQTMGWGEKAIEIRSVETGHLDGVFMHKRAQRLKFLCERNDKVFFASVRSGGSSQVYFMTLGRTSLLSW
Sequence of CDC42BPB (Q9Y5S2 whole entry): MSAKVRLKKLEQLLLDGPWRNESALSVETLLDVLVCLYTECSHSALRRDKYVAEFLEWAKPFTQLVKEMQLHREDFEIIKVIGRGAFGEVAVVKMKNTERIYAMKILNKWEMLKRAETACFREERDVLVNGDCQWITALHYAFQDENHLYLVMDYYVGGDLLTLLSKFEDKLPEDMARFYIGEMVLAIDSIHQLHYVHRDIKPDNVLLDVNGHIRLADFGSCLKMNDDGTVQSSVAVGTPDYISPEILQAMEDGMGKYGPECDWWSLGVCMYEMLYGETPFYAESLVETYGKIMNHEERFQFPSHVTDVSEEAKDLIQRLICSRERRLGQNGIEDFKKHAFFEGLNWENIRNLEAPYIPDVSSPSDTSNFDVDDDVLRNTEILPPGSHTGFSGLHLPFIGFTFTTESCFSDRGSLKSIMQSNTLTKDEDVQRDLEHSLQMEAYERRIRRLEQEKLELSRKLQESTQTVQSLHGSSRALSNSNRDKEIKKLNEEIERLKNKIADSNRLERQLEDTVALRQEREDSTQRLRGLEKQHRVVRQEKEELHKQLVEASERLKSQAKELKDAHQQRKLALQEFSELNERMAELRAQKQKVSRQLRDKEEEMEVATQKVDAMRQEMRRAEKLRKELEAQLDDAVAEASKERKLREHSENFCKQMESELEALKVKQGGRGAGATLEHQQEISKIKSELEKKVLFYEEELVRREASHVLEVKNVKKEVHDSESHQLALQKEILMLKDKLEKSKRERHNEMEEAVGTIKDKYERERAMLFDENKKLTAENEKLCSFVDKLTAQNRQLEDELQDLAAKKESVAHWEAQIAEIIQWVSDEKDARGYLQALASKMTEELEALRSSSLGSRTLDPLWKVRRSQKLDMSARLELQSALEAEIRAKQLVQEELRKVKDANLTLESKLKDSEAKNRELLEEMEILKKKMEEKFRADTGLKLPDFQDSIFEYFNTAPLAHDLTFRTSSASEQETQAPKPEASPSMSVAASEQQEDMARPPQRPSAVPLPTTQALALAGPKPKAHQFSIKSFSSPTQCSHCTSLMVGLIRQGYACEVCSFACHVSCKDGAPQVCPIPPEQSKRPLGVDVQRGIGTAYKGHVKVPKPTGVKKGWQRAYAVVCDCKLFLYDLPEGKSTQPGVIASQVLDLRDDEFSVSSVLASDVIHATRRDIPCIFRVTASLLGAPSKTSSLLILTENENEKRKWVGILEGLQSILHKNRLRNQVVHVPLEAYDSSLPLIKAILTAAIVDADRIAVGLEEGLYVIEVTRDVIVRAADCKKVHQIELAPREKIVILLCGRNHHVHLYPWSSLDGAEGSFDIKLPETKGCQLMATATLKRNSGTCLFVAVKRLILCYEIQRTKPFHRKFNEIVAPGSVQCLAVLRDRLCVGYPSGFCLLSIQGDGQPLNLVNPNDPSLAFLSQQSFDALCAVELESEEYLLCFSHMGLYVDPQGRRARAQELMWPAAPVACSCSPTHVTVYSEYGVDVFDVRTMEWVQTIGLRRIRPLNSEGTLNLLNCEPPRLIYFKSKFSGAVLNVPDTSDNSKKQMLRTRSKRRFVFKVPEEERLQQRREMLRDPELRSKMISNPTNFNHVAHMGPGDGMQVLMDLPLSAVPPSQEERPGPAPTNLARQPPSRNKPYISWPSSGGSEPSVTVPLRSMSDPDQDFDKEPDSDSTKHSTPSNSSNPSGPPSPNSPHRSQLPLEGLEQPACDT

B1: LZTR1-FLAG (other, human, UniProt Q8N653 1-840, looked up)
chain: MAGPGSTGGQIGAAALAGGARSKVAPSVDFDHSCSDSVEYLTLNFGPFETVHRWRRLPPCDEFVGARRSKHTVVAYKDAIYVFGGDNGKTMLNDLLRFDVKDCSWCRAFTTGTPPAPRYHHSAVVYGSSMFVFGGYTGDIYSNSNLKNKNDLFEYKFATGQWTEWKIEGRLPVARSAHGATVYSDKLWIFAGYDGNARLNDMWTIGLQDRELTCWEEVAQSGEIPPSCCNFPVAVCRDKMFVFSGQSGAKITNNLFQFEFKDKTWTRIPTEHLLRGSPPPPQRRYGHTMVAFDRHLYVFGGAADNTLPNELHCYDVDFQTWEVVQPSSDSEVGGAEVPERACASEEVPTLTYEERVGFKKSRDVFGLDFGTTSAKQPTQPASELPSGRLFHAAAVISDAMYIFGGTVDNNIRSGEMYRFQFSCYPKCTLHEDYGRLWESRQFCDVEFVLGEKEECVQGHVAIVTARSRWLRRKITQARERLAQKLEQEAAPVPREAPGVAAGGARPPLLHVAIREAEARPFEVLMQFLYTDKIKYPRKGHVEDVLLIMDVYKLALSFQLCRLEQLCRQYIEASVDLQNVLVVCESAARLQLSQLKEHCLNFVVKESHFNQVIMMKEFERLSSPLIVEIVRRKQQPPPRTPLDQPVDIGTSLIQDMKAYLEGAGAEFCDITLLLDGHPRPAHKAILAARSSYFEAMFRSFMPEDGQVNISIGEMVPSRQAFESMLRYIYYGEVNMPPEDSLYLFAAPYYYGFYNNRLQAYCKQNLEMNVTVQNVLQILEAADKTQALDMKRHCLHIIVHQFTKVSKLPTLRSLSQQLLLDIIDSLASHISDKQCAELGADI
notes: Expressed in HEK 293T, HeLa or U87 cells; used as cell lysate; also called LZTR1 wild type-FLAG; LZTR1 WT; not shown: FLAG tag at the C-terminus
binds: all assays above
